Experimental data as given in PMC10778600, “Conserved Residues Lys64 and Glu78 at the Subunit Surface of Tau Glutathione Transferase in Rice Affect Structure and Enzymatic Properties” (International Journal of Molecular Sciences, 2023).

Key:
[1] = target: wild-type OsGSTU17 (rice tau class glutathione transferase) (Oryza sativa); experiment: native gel or EMSA; native PAGE of the purified proteins, gel pre-run 30-60 min, 100-200 V, 0-4 °C; BSA and ovalbumin as markers; molecular weight compared with SDS-PAGE of the denatured proteins
[2] = target: OsGSTU17 mutant E78A (Oryza sativa); experiment: as above
[3] = target: OsGSTU17 mutant K64A (Oryza sativa); experiment: as above
[4] = substrate: O=[N+]([O-])c1ccc(Cl)c2nonc12; experiment: steady-state kinetics, non-linear regression; format: biochemical, Oryza sativa; details: GSH fixed at 1.0 mM; NBD-Cl 0.2 to 1.0 mM
Excerpt: steady-state kinetics, non-linear regression on OsGSTU17

In the case of “wild-type OsGSTU17 (rice tau class glutathione transferase) (enzyme)”, the stoichiometry N [1] is reported as 2.

Molecule OsGSTU17 mutant E78A (enzyme) has a stoichiometry N [2] of 2.

For OsGSTU17 mutant K64A (enzyme), the stoichiometry N [3] was 2.

B1: OsGSTU17 (Oryza sativa Japonica Group; K64A) (protein)
chain: MAADKGVKVFGMWASPMAIRVEWALRLKGVDYEYVDEDLANKSEALLRHNPVTKKVPVLVHDGAPLAESTVIVEYIDEAWKHGYPIMPSDPFDRAQARFWARFAEEKCNAALYPIFMTTGEEQRKLVHEAQQCLKTLETALEGKKFFGGDAFGYLDIVTGWFAYWLPVIEEACGVEVVTDEALPLMKAWFDRVLAVDAVKAVLPPRDKLVALNKARREQILSA
Molecule B1 has a Km [4] of 507 ± 25 µM, a Vmax [4] of 0.287 µM/min/mg and a kcat [4] of 0.217 s⁻¹. For the same molecule, the kcat/Km [4] was 428 M⁻¹ s⁻¹.
